# Patent US20180311300A1 (published 2018)
# Values joined by “and” are separate entries in the source; they are usually repeats but may differ in a detail not shown here. Identical values can stand only once. Numbered stars: 1 amine (or outer) side, 2 acyl side, 3 side chain; on linkers, the order of the positions; unused ones are H or OH. Bridge positions count the residues as written; N and C are the ends. Square brackets hold non-standard residues; d marks the D form. Ends that are not written are not given here. Intermediate H = 1,1',1''-(1,7,13-trioxa-4,10,16-triazacyclooctadecane-4,10,16-triyl)tris(2-chloroethan-1-one), O=C(C[*:1])N1CCOCCN(C(=O)C[*:2])CCOCCN(C(=O)C[*:3])CCOCC1; Intermediate D = 1,1',1''-(1,4,7-triazonane-1,4,7-triyl)tris(prop-2-en-1-one), O=C(CC[*:1])N1CCN(C(=O)CC[*:2])CCN(C(=O)CC[*:3])CC1; Intermediate K = 1,3,5-tris(vinylsulfonyl)benzene, O=S(=O)(CC[*:1])c1cc(S(=O)(=O)CC[*:2])cc(S(=O)(=O)CC[*:3])c1; Intermediate C = 1,1',1''-(1,4,7-triazonane-1,4,7-triyl)tris(2-chloroethan-1-one); Intermediate I = 1,4,7-tris(vinylsulfonyl)-1,4,7-triazonane; 1Nal = N[C@@H](Cc1cccc2ccccc12)C(=O)O; Tle = CC(C)(C)[C@H](N)C(=O)O
# Legend:
# MT1-MMP hemopexin domain [1] = biological target: T1, MT1-MMP hemopexin domain (UniProt P50281 319-511); test: fluorescence polarization (anisotropy) assay on MT1-MMP hemopexin domain; grade B = Ki >50 nM and <=100 nM
# T1 construct: domain: hemopexin domain; also called hemopexin of MT1-MMP; membrane type 1 metalloprotease
# Description: (§1) Direct Binding Fluorescence Polarization or Anisotropy Assays are performed by titrating a constant concentration of fluorescent tracer (here, the fluoresceinated bicyclic peptide to be studied) with its binding partner (here, the MT1-MMP hemopexin domain). As the concentration of binding partner increases during the titration, the polarization signal changes in proportion to the fraction of bound and unbound material. This allows determination of […] (Kd) quantitatively. Assay data can be fit using standard ligand binding equations.
# (§2) The titrant (binding partner) concentration is varied from 0.1 nM up to typically 5 μM. The range is chosen such that the maximum change in fluorescent polarization can be observed. Buffers employed are phosphate buffered saline in the presence of 0.01% Tween. Experiments were run in black 384 well low-bind/low volume plates (Corning 3820), and the fluorescent polarization signal was measured using a BMG Pherastar FS plate reader. Fluorescent tracers referred to in the text are bicyclic peptides that have been fluoresceinated using 5,6-carboxyfluorescein. Fluoresceination may be performed on the N-terminal amino group of the peptide, which is separated from the bicycle core sequence by a sarcosine spacer (usually Sar5). […]
# MT1-MMP hemopexin domain [2] = biological target: T1, MT1-MMP hemopexin domain; test: fluorescence polarization (anisotropy) assay on MT1-MMP hemopexin domain; grade A = Ki <50 nM
# Description: as §1, §2
# MT1-MMP hemopexin domain [3] = biological target: T1, MT1-MMP hemopexin domain; test: fluorescence polarization (anisotropy) assay on MT1-MMP hemopexin domain; grade D = Ki >1,000 nM
# Description: as §1, §2
Ki (MT1-MMP hemopexin domain [1]),Ki (MT1-MMP hemopexin domain [2]) [nM],Binder,further results
> 50 nM and ≤ 100 nM,,"AC[dA]NE[1Nal][dA]CEDFYD[Tle]C (linker 2-8-15 via Intermediate D, also called peptide 4 cyclised with Intermediate D) [I-55]",
,< 50,"AC[dA]NE[1Nal][dA]CEDFYD[Tle]C (linker 2-8-15 via Intermediate C, also called peptide 4 cyclised with Intermediate C) [I-54]",
,,"AC[dA]NE[1Nal][dA]CEDFYD[Tle]C (linker 2-8-15 via Intermediate I, also called peptide 4 cyclised with Intermediate I) [I-59]",Ki (MT1-MMP hemopexin domain [3]): > 1000 nM
,< 50,"AC[dA]NE[1Nal][dA]CEDFYD[Tle]C (linker 2-8-15 via Intermediate K, also called peptide 4 cyclised with Intermediate K) [I-61]",
> 50 nM and ≤ 100 nM,,"AC[dA]NE[1Nal][dA]CEDFYD[Tle]C (linker 2-8-15 via Intermediate H, also called peptide 4 cyclised with Intermediate H) [I-58]",
